± gives the uncertainty stated by the source.
Assay: amyloid nucleation score (Sup35N fusion, yeast selection) (log enrichment); library NNK2; higher = more nucleation; inactive = no reads after selection
Summary of the method: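 Peptides of 20 random codons fused to Sup35N were expressed in psi-negative yeast, induced 24 hours with 100 μM copper sulfate, then grown 7 days at 30°C on medium lacking adenine and uracil. Input and output plasmid inserts were Illumina-sequenced. Nucleation score is the DiMSum log enrichment of output over input reads, centred on the mode score of non-aggregating sequences, excluding sequences with under 100 input reads. Random libraries had three technical output replicates.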

Row | Substance | amyloid nucleation score
1 | DQFRHLVTGSNNTIIKYSGV | inactive
2 | SRHTIVTGRWLFRDYQSLLW | 0.19 ± 1.1
3 | YMFAIHELNGEIIGPFTVNP | inactive
4 | RYGERIFV | 0.627 ± 0.43
5 | ILSAFV | -0.16 ± 0.36
6 | ICRLFVR | -0.454 ± 0.31
7 | AISGWCNMNCKLGKQWDYLV | 1.25 ± 0.66
8 | VTVTFIAEHSIWPSVNNCFV | 1.71 ± 0.15
9 | MKTGLGVFRSFDLVVYNRR | inactive
10 | FMTLAGFSGAVEASGADWRR | -0.606 ± 0.63
11 | VGSGRLTWT | 0.917 ± 0.28
12 | LMFWGCSGLRWLVVLSDNKA | 3.8 ± 0.097
13 | FSFVTFSGNRFDFLLLRPCT | inactive
14 | SMCGSNAFLDTDRDVRHDDF | -1.05 ± 0.78
15 | WRDSVDTGISSGKVGGRCSE | -0.047 ± 0.27
16 | DVAYRVVDKRIQRVAKCMYM | -0.194 ± 0.6
17 | AWSLFYRLLPPWNE | -0.656 ± 1.1
18 | LGSWR | -0.829 ± 1.1
19 | SVNWSFRSMNIFH | 3.45 ± 0.055
20 | RMKMDNIPFEIYVFTVTLLD | inactive
21 | WMLIWYGPRLVYIPDLITLP | inactive
22 | NGLESYDFTQLY | -0.667 ± 0.64
23 | VMSFHWCVVSSVPWDCQACH | 3.93 ± 0.1
24 | QCWLGTGFLRVLACAVAFLY | inactive
25 | IMNSQVVGSFHA | -0.357 ± 0.37

Row | Substance | amyloid nucleation score
26 | ILRCLNLYMRSIMRVELSIQ | 0.461 ± 0.8
27 | HIGILTT | 1.64 ± 0.32
28 | FLSRSQRCMIG | 0.313 ± 0.64
29 | KVRGPSNNVSSQKAHDRFDS | 0.277 ± 0.28
30 | GINCRGAIR | -0.345 ± 0.26
31 | LYLHKDHIDVNFNHMVKGLT | -0.263 ± 1.1
32 | FGRRLQGRHINSNDQWGRQA | 0.339 ± 0.61
33 | IEQFTVNLLTRRLKNSMGQN | -0.544 ± 0.79
34 | RSKSCSVVVRL | 0.813 ± 0.43
35 | LHCYFFRLMCQSYDRDYKC | -0.249 ± 1
36 | VNNGSMFSRGDWCVVLYPTW | 3.45 ± 0.077
37 | LSQCYSRLLVSTMKSH | 0.854 ± 0.14
38 | VWIAKKGQRSRFQLRSGMCA | 0.641 ± 0.74
39 | SMEVAFSELSKVKRTTCVDY | inactive
40 | PSYFRNRIRLSRVGTNGYTR | -0.693 ± 1.1
41 | WAGRDHFWNIIYLDLSFVGE | 3.77 ± 0.12
42 | VIGRCDSL | inactive
43 | ADRWYYMQPNTLCSNVTANA | 1.26 ± 0.37
44 | YFKYNVYIT | 1.3 ± 0.23
45 | CFLELYSWFKDAVTTFN | inactive
46 | NRLERMLLTDTDVSEKGSLG | -0.204 ± 0.54
47 | DSLTQILTVSCVCYEESMRI | -0.613 ± 0.48
48 | LFYGNHWAPASWIWN | 2.34 ± 0.15
49 | QLESKRWWDIGWCSYLAGGW | 4.92 ± 0.068
50 | RYTLRGSGEWLVHDTLGVTD | 0.267 ± 0.5

Row | Substance | amyloid nucleation score
51 | VKIWDHKCSLRGYWVKWMIG | 1.45 ± 0.3
52 | DTSIW | 0.114 ± 0.29
53 | VHSNCSLNGPCMPMCVRRRW | 0.302 ± 0.56
54 | YTIAECQSCPQNFLFFH | 5.96 ± 0.063
55 | ISYVCGPFICVLNLFYQI | 6.04 ± 0.066
56 | EVDLRKSGLSGRVKFYLMLW | 0.839 ± 0.57
57 | NSWFLYRCKFVLRHSYVN | inactive
58 | TWGVLFAYSIEDCVGINYLG | 0.73 ± 0.18
59 | ILLPSFRPLRQAAAG | -0.311 ± 0.79
60 | IHMWYSDG | -1.25 ± 0.75
61 | GNIAVYNDAILLVWDNESRT | -0.714 ± 1
62 | PISTSFYRMSILEYGSR | -0.529 ± 0.64
63 | YVNFIVFTDMIWDS | 4.94 ± 0.09
64 | FSRSYVPIMY | 0.759 ± 0.8
65 | SSRDKILTSMKIWMLRFLAN | 0.37 ± 0.51
66 | TGRLSIVAKNYWGHSVRAFS | 0.001 ± 0.76
67 | FIERSSLEDNVSSALAISR | 0.704 ± 0.47
68 | SNDDIEIAKRSHMY | 0.196 ± 0.54
69 | EDIGSVMGVSRAFCWQRAIC | -0.666 ± 0.79
70 | GECLDR | 2.83 ± 0.075
71 | TASFK | -0.014 ± 0.76
72 | HIFVVGMDRSVVSRSVEP | inactive
73 | CWVIKGRAKCV | -0.26 ± 1
74 | KCGEKRMKCFSDCRRWWLCQ | 4.88 ± 0.068
75 | WIMSVGTAKWRDGQPSACRK | 3.46 ± 0.13

Row | Substance | amyloid nucleation score
76 | AVELGSGGALSRDKLQGQDG | 0.791 ± 0.74
77 | HASWIGISLS | -0.395 ± 0.74
78 | GYRFEAPWYNGLTVYGRIFC | -1.1 ± 0.55
79 | SLYMFLVSALVQSYLLV | -1.4 ± 0.45
80 | CCDNY | -0.778 ± 0.54
81 | EGFLRIVKVVTTIWWTGLFC | -1.23 ± 1
82 | LGCICMR | 4.09 ± 0.071
83 | RIRSCTLMWT | 0.807 ± 0.22
84 | GRSGFYCIHKMSVDTFIQKA | 4.27 ± 0.074
85 | KVMVRLGSNSAAKYFYVNRV | 3.84 ± 0.057
86 | VCSMEGYEAVYSRRRELLWS | 0.08 ± 0.36
87 | FVYSVRS | 0.025 ± 0.63
88 | DVKSAWRLGVGCLTVRAIRE | 0.233 ± 0.49
89 | VCRDYGVMSMRRDWLCRMSL | 0.391 ± 0.65
90 | SSQGLPDNGTRPLGWKYR | 0.417 ± 0.4
91 | MSSIDFSFCTSSLRTYSIVR | 0.155 ± 1.1
92 | DGGMR | 0.322 ± 0.5
93 | KRNVRFVGMITKRMSRSRPI | 0.511 ± 0.43
94 | FRVRRGLASGR | 1.28 ± 0.3
95 | VFVSCYYAYLLRDTTNFYVG | inactive
96 | MSFNQLIMFETRSSTPYRWR | 5.71 ± 0.078
97 | DYGLVCY | 0.277 ± 0.22
98 | YRVVTSTVKMRLWSRGVYDH | 3.07 ± 0.088
99 | PWVSILLVPMYQRHLTPHPE | -0.121 ± 1.1
100 | YPYSSWRGSVHCELGINGMG | 0.29 ± 0.77

Row | Substance | amyloid nucleation score
101 | YVWRYVRPLVLAIDCVVAR | 0.001 ± 0.42
102 | LQYIY | -0.533 ± 0.78
103 | GMSTRQFKLLPGCREVMRAG | 0.571 ± 0.64
104 | CWDEQLQPS | 0.744 ± 0.45
105 | FVHERASGIVMLRGISVRGP | -0.327 ± 0.48
106 | FSTRGSAMLRVAGLSGPRAS | 0.29 ± 0.43
107 | HVNWVKKSSWLIGT | 0.62 ± 0.74
108 | YCYVCDVNVYVYLTAIGNKF | 7.43 ± 0.085
109 | GVFSLRKGGCRDW | -0.567 ± 1.1
110 | HNLMCYGWNFLSVSVVDNCD | 6.552 ± 0.05
111 | GDRYSSYSRFEEY | 0.565 ± 0.19
112 | NSCSWDSIITLVVQWLARQH | 6.342 ± 0.039
113 | TGFQLVNWSNIGLWNNLYGR | 5.49 ± 0.065
114 | RVPFFVGAG | -0.271 ± 0.74
115 | QYQKIIWISCSIPMQMTISA | -0.097 ± 1.1
116 | SDIVNMGEVLVLGDSYWREG | -0.449 ± 0.63
117 | ISVPYGVKGSSACMNGLGVT | 0.318 ± 0.8
118 | VSYVDESHFVNTKSDMPSVS | -0.392 ± 0.63
119 | FGHNGRICKRLMEVPIFERA | -0.655 ± 0.32
120 | KAVVMLI | -1.09 ± 0.31
121 | AMGMRTSYCGC | inactive
122 | NRDVVKKLPGPSSFVMT | -0.552 ± 0.44
123 | DISCCLYRDTPVWERKDYVA | -0.506 ± 1
124 | YYQSIGLQYSRMKMGCKRND | 0.882 ± 0.18
125 | SCRVME | 0.292 ± 0.2

Row | Substance | amyloid nucleation score
126 | ECMAWGIFCGGSSGIFCLNQ | inactive
127 | SAPECNLAARVFYLLSPMGM | 0.13 ± 1.1
128 | HRVYEFIKPLGPGAHTFVFT | 0.097 ± 1.1
129 | KIWMSLHLRELRLC | 0.569 ± 0.12
130 | MGSGYSQCAGRGWARVERLG | 1.44 ± 0.3
131 | QKMLLKIWIVDRNTYSAVLN | -0.425 ± 0.74
132 | LRSPWLF | -0.687 ± 0.79
133 | SRITCKDVMLL | -0.654 ± 0.49
134 | NLASRALIKLFH | -0.538 ± 0.48
135 | ETHVRMWAHFWQTTLRCHKS | 1.72 ± 0.16
136 | WTLYKTMIMVSSVPFIIKIC | -1.2 ± 0.76
137 | LYIHVDWLAWKTHVRQTKVT | -0.455 ± 1.1
138 | GSYHFHASNTD | -0.555 ± 0.79
139 | FINKIKVRLNLMSGSANRLL | 4.57 ± 0.11
140 | NCLLVLHFG | 6.91 ± 0.073
141 | RVVCLLKGRWFALVLPDYCR | 0.479 ± 0.8
142 | LYYLFSKFILRDETSSSQKK | inactive
143 | ILYGCLLPCLHLRGHPLVLK | 0.42 ± 0.33
144 | CNSYEYLRN | -0.035 ± 0.76
145 | GCLMVGINGCPIGPM | -1.11 ± 1.1
146 | LKTQWQSPWVQMV | -0.09 ± 0.48
147 | NWLCRWWQGWNLT | 0.739 ± 0.28
148 | VQPYSILNFRMELKANRLEL | 4.4 ± 0.052
149 | KILFPVR | -0.927 ± 1
150 | YSFFIIVSALIGRWAS | -0.894 ± 1.1

Row | Substance | amyloid nucleation score
151 | TLLSASYGV | -0.742 ± 0.79
152 | FIADLSDMW | -0.916 ± 1.1
153 | HLSCDWVLIDEGLACYM | -0.586 ± 0.54
154 | HFPHGHDFVFTVCYDTHSCL | 0.729 ± 0.15
155 | SFLKSMMAPIYKCSVWCSML | -0.819 ± 0.64
156 | TGLTH | -0.737 ± 0.54
157 | IGLKYSLWVVGFEVRLRCAD | 3.86 ± 0.07
158 | LIPVTGAMGSN | 0.183 ± 0.4
159 | NYWRDGQNDLGWLSLANFFK | inactive
160 | TWGPWTLMSVLSCGVYGSHG | 4.3 ± 0.084
161 | RCSTGRVFSSLDEVLLSRWG | 4.64 ± 0.048
162 | VVTLDRGLGHNRKGIQLGFR | 0.547 ± 0.81
163 | MANYYLCFYFVLVMRQMKFT | -1.18 ± 0.62
164 | MRNPYFRHCRFITRRVVFID | inactive
165 | ANWQWPYCCCCLEGIGRNLF | 4.94 ± 0.073
166 | DSSYG | 0.285 ± 0.74
167 | LRTTGLHFSSRLMVFTLNWI | -0.237 ± 0.33
168 | GLRQVGA | -0.34 ± 0.79
169 | LLADAVMWFTMGSEDHDCY | -0.531 ± 0.44
170 | SCAHKELCQSVLRDVYWCTL | -0.224 ± 0.79
171 | RSTLDQRRFGNRF | 0.063 ± 1.1
172 | GRRLSGILRRDGGANGCHRR | 0.098 ± 0.42
173 | SPLHKKVYKRLRLTSDTRQI | -0.516 ± 0.55

Reference: the supplement of paper PMC12042874
